# No end group written: not given here.
# B1: R28A-HD5: HD5 mutant R28A, chemically synthesized; cationicity (peptide, UniProt Q01523 20-94, looked up, variant R28A)
# Defensin alpha 5: ESLQERADEATTQKQSGEDNQDLAISFAGNGLSALRTSGSQARATCYCRTGRCATRESLSGVCEISGRLYALCCR
# modifications: Defensin-5
# B2: S15A-HD5: HD5 mutant S15A, chemically synthesized (peptide, UniProt Q01523 20-94, looked up, variant S15A)
# Defensin alpha 5: ESLQERADEATTQKQSGEDNQDLAISFAGNGLSALRTSGSQARATCYCRTGRCATREALSGVCEISGRLYRLCCR
# modifications: Defensin-5
# B3: L16A-HD5: HD5 mutant L16A, chemically synthesized; hydrophobicity (peptide, UniProt Q01523 20-94, looked up, variant L16A)
# Defensin alpha 5: ESLQERADEATTQKQSGEDNQDLAISFAGNGLSALRTSGSQARATCYCRTGRCATRESASGVCEISGRLYRLCCR
# modifications: Defensin-5
# B4: Y4A-HD5: HD5 mutant Y4A, chemically synthesized; hydrophobicity (peptide, UniProt Q01523 20-94, looked up, variant Y4A)
# Defensin alpha 5: ESLQERADEATTQKQSGEDNQDLAISFAGNGLSALRTSGSQARATCACRTGRCATRESLSGVCEISGRLYRLCCR
# modifications: Defensin-5
# B5: human α-defensin 5 (peptide, UniProt Q01523 20-94, looked up)
# Defensin alpha 5: ESLQERADEATTQKQSGEDNQDLAISFAGNGLSALRTSGSQARATCYCRTGRCATRESLSGVCEISGRLYRLCCR
# modifications: Defensin-5
# B6: Y27A-HD5: HD5 mutant Y27A, chemically synthesized; hydrophobicity (peptide, UniProt Q01523 20-94, looked up, variant Y27A)
# Defensin alpha 5: ESLQERADEATTQKQSGEDNQDLAISFAGNGLSALRTSGSQARATCYCRTGRCATRESLSGVCEISGRLARLCCR
# modifications: Defensin-5
# Tests used:
# Type in all cases: cell-based
# HIV-1JR-FL [1] = system: HIV-1JR-FL
# HIV-1JR-FL [2] = system: HIV-1JR-FL; remark: listed apart in the source
# HIV-1JR-FL [3] = system: HIV-1JR-FL; remark: listed apart in the source
Molecule,Attachment 10 μg/mL: relative percent of HIV attachment compared to WT HD6 (HIV-1JR-FL [1]),Attachment 30 μg/mL: relative percent of HIV attachment compared to WT HD6 (HIV-1JR-FL [1]),Infectivity 10 μg/mL: relative percent of HIV infectivity compared to WT HD6 (HIV-1JR-FL [2]),Infectivity 30 μg/mL: relative percent of HIV infectivity compared to WT HD6 (HIV-1JR-FL [2]),Late RT production compared to WT HD6 (HIV-1JR-FL [3]),Attachment 10 μg/mL: relative percent of HIV attachment compared to WT HD5 (HIV-1JR-FL [1]),Attachment 30 μg/mL: relative percent of HIV attachment compared to WT HD5 (HIV-1JR-FL [1]),Reduction of ability to promote HIV attachment compared to WT HD5 (HIV-1JR-FL [1]),Infectivity 10 μg/mL: relative percent of HIV infectivity compared to WT HD5 (HIV-1JR-FL [2]),Infectivity 30μg/mL: relative percent of HIV infectivity compared to WT HD5 (HIV-1JR-FL [2]),Loss of HIV attachment-enhancing and infection-enhancing activities (HIV-1JR-FL [2])
"Ac-HD6: HD6 acetylated at the N-terminus (Ac-AFTCHCRRSCYSTEYSYGTCTVMGINHRFCCL; ends and bridges not checked; UniProt Q01524 69-100, looked up)",57 ± 14%,87 ± 19%,58 ± 24%,175 ± 43%,comparable,–,–,–,–,–,–
B1,–,–,–,–,–,54 ± 17%,59 ± 19%,41%,66 ± 5%,52 ± 3%,about 50%
B2,–,–,–,–,–,118± 9%,95 ± 16%,–,166 ± 30%,81 ± 11%,–
B3,–,–,–,–,–,17 ± 5%,27 ± 7%,–,10 ± 3%,30 ± 3%,–
B4,–,–,–,–,–,134 ± 26%,106 ± 3%,–,136 ± 42%,75 ± 14%,–
B5,–,–,–,–,–,100 ± 0%,100 ± 0%,–,100 ± 0%,100 ± 0%,–
B6,–,–,–,–,–,19 ± 11%,18 ± 9%,–,28 ± 18%,29 ± 9%,–

# — paper PMC5618010 (Viruses, 2017)
